B1: Hairpin Ribozyme (parent)
chain: GUCCUCUUUCACGUGCGCGUGAAAGAGAGAAGUGAACCAGAGAAACACACGUUGUGGUAUAUUACCUGGUA

Variants of B1 are the subject of the data set. The experiment in a line: self-cleavage, relative activity (ratio to wild type); higher = more cleavage; co-transcriptional.
In the case of C4G G69U, the self-cleavage worked out at 0.118.

In the case of C4G G69A, the self-cleavage was 0.132.

As for C4G C48U, the self-cleavage worked out at 0.146.

With C4G A44G, the self-cleavage amounted to 0.0493.

For the variant C4G A44U, the self-cleavage worked out at 0.164.

On to C4G G42U, for which the self-cleavage worked out at 0.121.

Consider C4G G42A, for which the self-cleavage stood at 0.194.

As for U5G A36G, the self-cleavage came to 0.166.

U5C C65U: the self-cleavage amounted to 0.24.

Take U5A G15C: the self-cleavage is 0.33.

For U5G A31G, the self-cleavage worked out at 0.17.

For the variant U5G A31C, the self-cleavage worked out at 0.091.

For the variant C4G A36U, the self-cleavage worked out at 0.118.

With C4G A36C, the self-cleavage was determined as 0.103.

C4U A43U: the self-cleavage stood at 0.202.

Consider U5A U33G, for which the self-cleavage amounted to 0.131.

Consider C4A C65A, for which the self-cleavage is 0.148.

In the case of U5A G32U, the self-cleavage was 0.153.

As for U5A G32C, the self-cleavage is 0.0597.

Regarding C4A A45C, the self-cleavage was 0.167.

In the case of C4G G29U, the self-cleavage was 0.13.

Regarding C4G A22C, the self-cleavage was 0.206.

Consider C4A C46U, for which the self-cleavage was found to be 0.17.

For C4A C46G, the self-cleavage is 0.165.

As for U5C G21U, the self-cleavage came to 0.593.

U5C G21C: the self-cleavage stood at 0.6.

As for U5C G21A, the self-cleavage was determined as 0.62.

C4A G69C: the self-cleavage worked out at 0.156.

In the case of C4G G54C, the self-cleavage was determined as 0.139.

Regarding C4G G54A, the self-cleavage worked out at 0.144.

Consider C4G A28U, for which the self-cleavage worked out at 0.0783.

As to C4G A28G, the self-cleavage turned out to be 0.443.

As for U5C A64U, the self-cleavage is 0.0907.

As to U5C A64G, the self-cleavage came to 0.587.

Turning to U5C A64C, the self-cleavage was 0.19.

Take U5C C46G: the self-cleavage came out at 0.0996.

As to C4G U14A, the self-cleavage was found to be 0.231.

C4G U14G: the self-cleavage was 0.265.

Regarding C4U U62A, the self-cleavage was determined as 0.143.

In the case of C4U U14G, the self-cleavage was found to be 0.418.

With C4U U14A, the self-cleavage amounted to 0.376.

For the variant C4U U14C, the self-cleavage was 0.184.

In the case of U5C U9A, the self-cleavage turned out to be 0.418.

Regarding U5C U9G, the self-cleavage was found to be 0.187.

Regarding C4U C16A, the self-cleavage was 0.41.

Regarding U5C A39C, the self-cleavage worked out at 0.51.

As for U5G A44G, the self-cleavage amounted to 0.177.

For U5G A44C, the self-cleavage came out at 0.147.

Turning to U5C A22C, the self-cleavage was 0.586.

Regarding U5C A22U, the self-cleavage came to 0.732.

As to U5C A35G, the self-cleavage amounted to 0.358.

As to C4U A41U, the self-cleavage was 0.71.

Regarding C4U A41C, the self-cleavage amounted to 0.469.

For the variant C4A A36G, the self-cleavage came out at 0.198.

Turning to U5A A31G, the self-cleavage was determined as 0.212.

Turning to U5A A31C, the self-cleavage was 0.156.

In the case of C4U G51U, the self-cleavage was 0.194.

Regarding C4U G51A, the self-cleavage came to 0.533.

On to C4U A35C, for which the self-cleavage is 0.418.

For the variant C4A U58A, the self-cleavage worked out at 0.113.

With C4A U58G, the self-cleavage came to 0.183.

Turning to C4U C18G, the self-cleavage was 0.349.

For the variant C4U C18U, the self-cleavage was determined as 0.514.

Turning to U5C C38U, the self-cleavage turned out to be 0.298.

For U5A A59G, the self-cleavage is 0.213.

Take C4U C48U: the self-cleavage came to 0.142.

Take U5A G19C: the self-cleavage came to 0.245.

In the case of U5A G19U, the self-cleavage worked out at 0.312.

As for C4U A49G, the self-cleavage turned out to be 0.0694.

Turning to U5G A23U, the self-cleavage was 0.192.

Turning to U5G A23C, the self-cleavage is 0.431.

On to C4U A71U, for which the self-cleavage came out at 0.282.

Consider U5C G25C, for which the self-cleavage worked out at 0.202.

Take U5C G25U: the self-cleavage was 0.28.

As for C4G A24U, the self-cleavage was found to be 0.183.

As for C4G A24C, the self-cleavage was found to be 0.177.

For C4G A24G, the self-cleavage is 0.256.

With U5C U60C, the self-cleavage is 0.549.

For U5C U60G, the self-cleavage is 0.236.

On to U5G A22C, for which the self-cleavage is 0.24.

For U5G A22U, the self-cleavage is 0.176.

As to C4U A45U, the self-cleavage was found to be 0.0517.

C4U G40A: the self-cleavage came to 0.147.

With C4G A31U, the self-cleavage amounted to 0.183.

Regarding C4G A31C, the self-cleavage came to 0.176.

Take C4U C10G: the self-cleavage came out at 0.264.

As to U5A C66A, the self-cleavage came to 0.247.

With U5G A24U, the self-cleavage came to 0.235.

For C4G C37G, the self-cleavage is 0.168.

With C4G C37A, the self-cleavage worked out at 0.209.

In the case of U5C A26G, the self-cleavage worked out at 1.26.

In the case of C4G C18U, the self-cleavage is 0.284.

Regarding U5A A64G, the self-cleavage came out at 0.154.

Consider U5C A59G, for which the self-cleavage is 0.222.

For U5C A59U, the self-cleavage was 0.0936.

Consider U5C C16G, for which the self-cleavage amounted to 0.516.

With U5C C16U, the self-cleavage worked out at 0.71.

Regarding C4G C10U, the self-cleavage worked out at 0.198.

Regarding C4A G34U, the self-cleavage was determined as 1.01.

For U5G A43G, the self-cleavage amounted to 0.

On to C4A C16A, for which the self-cleavage came to 0.202.

Regarding C4G A26U, the self-cleavage came to 0.204.

With C4G U52A, the self-cleavage stood at 0.143.

C4G U52G: the self-cleavage was found to be 0.184.

In the case of C4U U55G, the self-cleavage came out at 0.157.

Take U5C A71C: the self-cleavage amounted to 1.16.

As for U5A G13A, the self-cleavage is 0.139.

For C4A C18A, the self-cleavage came out at 0.13.

C4A G25C: the self-cleavage worked out at 0.153.

With C4U C37U, the self-cleavage came out at 0.243.

For C4A G21A, the self-cleavage was determined as 0.165.

Take U5C G56C: the self-cleavage was determined as 0.159.

As to C4U A31U, the self-cleavage is 0.104.

Consider C4U A31C, for which the self-cleavage came to 0.193.

Regarding U5A A26U, the self-cleavage came out at 0.67.

Take U5C A24U: the self-cleavage was determined as 0.229.

In the case of U5A C48U, the self-cleavage was 0.104.

For the variant U5C U70A, the self-cleavage stood at 0.594.

Consider U5C U70G, for which the self-cleavage amounted to 0.664.

For the variant C4U U7G, the self-cleavage amounted to 0.235.

In the case of U5C U53G, the self-cleavage was 0.448.

On to C4G G57A, for which the self-cleavage was determined as 0.103.

For U5A U55A, the self-cleavage worked out at 0.163.

As for U5A U55G, the self-cleavage worked out at 0.147.

Consider C4A A47G, for which the self-cleavage was determined as 0.188.

On to C4A A47C, for which the self-cleavage stood at 0.205.

As for U5C U63C, the self-cleavage was 0.286.

Regarding U5C G34U, the self-cleavage came out at 1.45.

As for U5C G34A, the self-cleavage came out at 0.78.

On to U5C G34C, for which the self-cleavage came to 1.

Take C4A U9G: the self-cleavage turned out to be 0.151.

Consider C4A U9C, for which the self-cleavage stood at 0.163.

As for C4U G19U, the self-cleavage is 0.312.

As for C4G A64U, the self-cleavage was 0.142.

As to C4G A64G, the self-cleavage turned out to be 0.124.

For U5C C6U, the self-cleavage amounted to 0.318.

Take U5C A30C: the self-cleavage amounted to 0.154.

For U5C A30G, the self-cleavage turned out to be 0.111.

C4A U53G: the self-cleavage is 0.27.

For the variant C4A A71U, the self-cleavage is 0.138.

Turning to U5A C38U, the self-cleavage was 0.0767.

Take U5A A44G: the self-cleavage is 0.121.

On to U5A A44C, for which the self-cleavage is 0.156.

As to C4U U60G, the self-cleavage was 0.299.

As to U5C G15A, the self-cleavage was 0.675.

With C4G U20C, the self-cleavage was found to be 0.135.

For U5C G13C, the self-cleavage turned out to be 0.47.

Turning to U5C U62A, the self-cleavage was 0.118.

Turning to U5C G51A, the self-cleavage came to 0.737.

C4A C12U: the self-cleavage was 0.319.

As for U5A U67A, the self-cleavage is 0.0927.

For the variant U5A U67C, the self-cleavage is 0.111.

Take C4G A49U: the self-cleavage turned out to be 0.183.

For the variant C4G A49G, the self-cleavage was determined as 0.101.

On to C4A A35U, for which the self-cleavage was determined as 0.188.

On to C4A A35G, for which the self-cleavage is 0.33.

As for C4A C50U, the self-cleavage amounted to 0.13.

For the variant C4G C12A, the self-cleavage turned out to be 0.071.

On to U5A A39C, for which the self-cleavage was 0.139.

For C4G C66A, the self-cleavage is 0.277.

In the case of C4G C66U, the self-cleavage is 0.178.

As for C4U U5G, the self-cleavage came to 0.343.

For the variant C4U U5C, the self-cleavage amounted to 0.109.

Regarding U5A A11U, the self-cleavage was determined as 0.196.

Turning to C4A G51A, the self-cleavage was 0.232.

Take C4A G51U: the self-cleavage was 0.148.

Turning to C4G G15C, the self-cleavage is 0.212.

(Values after the RNAGym collection of RNA variant scans (doi:10.7554/elife.80360).)
